# Publication PMC8048964 (Angewandte Chemie (International Ed. in English), 2021)
# What was measured:
# [1] = tested on: U2OS cells; assay: Live-cell delivery to U2OS cells, confocal laser scanning microscopy; assay type: cell-based
# [2] = tested on: HeLa cells; assay: Live-cell delivery to HeLa cells, CLSM and FiJi image analysis; assay type: cell-based; details: CLSM
substance,measurement,setting,value
TAMRA-SUMO2-cR10D [compound 15],signals in lysosomes or endosomes (punctuates) compared to analogue 14,"[1]; 4 μM in PBS, 37 °C, 45 min, CLSM",significantly fewer signals
TAMRA-Ub(S20C(cR10D))-PA [compound 11],"live-cell delivery (TAMRA signal, CLSM)","[1]; 2 μM in PBS, two independent sets of experiments (Figure S23)",significantly good
TAMRA‐Cys(cR10)‐Ub [compound 7],endosomal or lysosomal entrapment / cytosolic availability of protein,[2],cytosolic availability of protein was not improved
